System: MS2 coat protein
Test: apparent KD of MS2 coat protein; designed switch direction (-1 OFF switch, 1 ON switch): 1; higher = weaker reporter binding
Procedure, shortened: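 RNA switches sharing common flanks were transcribed by stalled E. coli RNA polymerase on Illumina chips. A doubling series of SNAP-549-labelled MS2 coat protein, from 0.7 or 1.5 nM to 3 µM, was applied in Tris-HCl pH 7.5 buffer with KCl, MgCl2, BSA, DTT, tRNA and Tween-20. Each step lasted 0.8–1.5 h at the bottom of the series and 10–20 min at the top. Normalised cluster fluorescence was curve-fitted, giving apparent KD as the per-design median over clusters.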

[1] = input ligand: microRNA oligo, concentration not stated
[2] = Eterna round: R95, input ligand: FMN 200 uM
[3] = Eterna round: R95, input ligand: microRNA oligo, concentration not stated
[4] = Eterna round: R95, input ligand: none

Row | Sequence | apparent KD of MS2 coat protein (input ligand: FMN 200 uM) [nM] | apparent KD of MS2 coat protein [1] [nM] | apparent KD of MS2 coat protein (input ligand: none) [nM] | apparent KD of MS2 coat protein [2] [nM] | apparent KD of MS2 coat protein [3] [nM] | apparent KD of MS2 coat protein [4] [nM]
1 | CCCUGAGGCAGCCUACAGGGACAUGAGGAUCACCCAUGUACACAGGAUAUCGAGGGCUCCGCCCUCGAGAAGGGUGAUCAGACU [Redied] (Eterna round: R96, puzzle: Same State NG 3) | 321 | 161 | 97.4 |  |  | 
2 | UCUUGGUUUUUGCUCGUUUUUUGUGUUGAACAUGAGGAUCACCCAUGUAUUGUACGGUCCGAUUUAGUGAUGGUCCA [JMF 40] (puzzle: Sensor for hsa-mir-208a) |  |  |  | 36.9 | 18.4 | 42.5
3 | CAGCGCUGUCGAGAGGAUAUGCUGUGAUGGACAUGAGGAUCACCCAUGUUAGCGAUAGCAUUACUGUAGAAGGCUCUACAGCUGC [Soteed - 15] (puzzle: Same State 2) |  |  |  |  | 10.9 | 
4 | GGAGCCAAGGCAGGAUAUUCAUACUAAUAACAUGAGGAUCACCCAUGUAAGGCCAGAAGGCCUUGGGAGAAGGGCCAUGGCUCG [Xeonanis - 13 mod3] (Eterna round: R96, puzzle: Same State NG 2) | 22 | 57.1 | 86.7 |  |  | 
5 | UGUUGUAUUACAGGAUAUCUGUUAUUUUUAUUUAGAGAAGGGUAUUCACAUGAGGAUCACCCAUGUAUAUACGAGGAAGUUGUG [JMF's solution 7] (Eterna round: R96, puzzle: Same State NG 1) |  | 40.8 |  |  |  | 
6 | CAAGUACAUGAGGAUCACCCAUGUGGAAGAGAUGCAGGAUAUGUGGGAGAAGGGAGUGUAACAGAAGGGCAAGGAG [JR_SS!_Sub019] (puzzle: Same State 1) |  |  |  | 113 | 71.8 | 109
7 | AAAAUACAUGAGGAUCACCCAUGUAGAAACUACACAGGAUAUCGGACGGCUGUAGCCAAACGAGAAGGGUGAACCC [Ramazaza] (puzzle: Same State 1) |  |  |  | 90.8 | 60.8 | 92
8 | UGUUGUAUUACAGGAUAUCUAGUAUUUUUGUUUAGAGAAGGGUAUUCACAUGAGGAUCACCCAUGUAUAUACGAGGAAGUUGUG [JMF's solution 47] (Eterna round: R96, puzzle: Same State NG 1) |  | 42.3 |  |  |  | 
9 | GAGUAGUUGAUAGGAUAUUGAUUGUUGUAGGAUCAAGAAGGAUCUAACAUGAGGAUCACCCAUGUAGGACUAUUCCUGUGUAUC [Parity 85 - Jieux - Same State NG 1] (Eterna round: R96, puzzle: Same State NG 1) | 18.6 | 13.7 | 21.4 |  |  | 
10 | GGUUUAGUCGAUUGCCGUUGCACUCGAAAACAUGAGGAUCACCCAUGUUUGGGACAAGCUUUGCUCCUCGUCUUUCC [Sous] (puzzle: Sensor for hsa-mir-208a) |  |  |  | 240 | 67.1 | 453
11 | GCUCGAAUCAAAACCAACAUGAGGAUCACCCAUGUAUGUUGGUAGGAUAUCGUUUGCUUUGCAAACGAGAAGGACCAAACGAGC [SameState NG3 #2] (Eterna round: R96, puzzle: Same State NG 3) | 26.8 | 67 | 94.2 |  |  | 
12 | AAAGAAAACGCAGGAUAUCCCGGAAUGGAACCGGGAGAAGGGUGACCGGUACAUGAGGAUCACCCAUGUAGAGCAAAGGCUCAA [Oninqu] (Eterna round: R96, puzzle: Same State NG 1) | 78 | 114 | 124 |  |  | 
13 | GUUACAUGAGGAUCACCCAUGUAUGUGUGGGAGUAAGUGUCUUAGGAUAUCUAUGAUUUAGUUUAAGAGAAGGAAGAUUGUUGU [JMF's solution 79] (Eterna round: R96, puzzle: Same State NG 3) | 117 | 86.3 | 111 |  |  | 
14 | GGUCCAGCCUGAGCUGGACAAAAGCAUGUACAUGAGGAUCACCCAUGUUCAUGUACAAGCUUUUUGCUCGUCUUAGG [salish99_208a_r3_070] (puzzle: Sensor for hsa-mir-208a) |  |  |  | 602 | 19.8 | 401
15 | UUAUCUCAGACAUGAGGAUCACCCAUGUGGUUAUGACUUAGACAGGAUAUAGUAGUAUCGAAAUACUAGAAGGGUCAUUUUAUU [JR_SSNG3_Sub021] (Eterna round: R96, puzzle: Same State NG 3) | 73.4 | 97.5 | 143 |  |  | 
16 | UCAAGCGAGAGGCUCGUCUUAUGUUUGGUACAUGAGGAUCACCCAUGUUAGGGACGAUUUAGUUAGAUGGAAUGGAG [JR_SHM208A_Sub034] (puzzle: Sensor for hsa-mir-208a) |  |  |  | 57.3 | 148 | 69.6

Row | Sequence | apparent KD of MS2 coat protein (input ligand: FMN 200 uM) [nM] | apparent KD of MS2 coat protein [1] [nM] | apparent KD of MS2 coat protein (input ligand: none) [nM] | apparent KD of MS2 coat protein [2] [nM] | apparent KD of MS2 coat protein [3] [nM] | apparent KD of MS2 coat protein [4] [nM]
17 | GCCGCACAUGAGGAUCACCCAUGUAAUUACAUGGGAGGAUAUCAGUGCUCGAAAGAGCACUGAGAAGGCCUAAGGC [SS1 - Omei A] (puzzle: Same State 1) |  |  |  | 419 | 32.4 | 20.8
18 | GGCUGCGUUGUGAAGGAUAUCCGCGUCUGGACAUGAGGAUCACCCAUGUAUGCUUGGAUCGUGCCGGAGAAGGUCACGAAUGAUU [JR_SS002_Sub1213] (Eterna round: R96, puzzle: Same State 2) | 14 | 29.4 | 55.2 |  |  | 
19 | UAAAUAAAGUAAGGAUAUACAUGAGGAUCUCUCGUAGAAGGUACUAUACAUGAGGAUCACCCAUGUGCCGGUCCGUAGACUGGA [Mat - Same State NG 1 - JL mod - D8] (Eterna round: R96, puzzle: Same State NG 1) | 475 | 107 | 68.8 |  |  | 
20 | AGUCCAGCCUGAGCUGGACAAAAGCAUGUACAUGAGGAUCACCCAUGUUCAUGUACAAGCUUUUUGCUCGUCGGAAU [Mat - hsa-mir-208a - Mod of JL - 49] (puzzle: Sensor for hsa-mir-208a) |  |  |  | 762 | 16.5 | 905
21 | GAGAGUGAAGUACAGGAUAUGAGGAGAGGAACAUGAGGAUCACCCAUGUGAAAUAGAGAGAAGAGUCAGAAGGGUAGGGAAGAGA [JR_SS2_Sub004] (puzzle: Same State 2) |  |  |  | 32.8 | 31.4 | 23
22 | CAGCGCUGUCGAGAGGAUAUGUGGUGAUGGACAUGAGGAUCACCCAUGUUAGCGACAGUAUCACGGCAGAAGGCUCUACCGCUGC [Soteed Omei mod 31] (puzzle: Same State 2) |  |  |  | 56.1 | 38.1 | 44
23 | UGGUAACAUGAGGAUCACCCAUGUCAAAUGAAUCGAGGAUAUGGGAAAGGAGAAGAGAAACCAGAAGGCGAAGUUG [Altered State 1-13 - Jieux - Same State 1] (puzzle: Same State 1) |  |  |  | 50.7 | 54.1 | 51.9
24 | GUAGUACAUGAGGAUCACCCAUGUUUCCUCCAAGAGUUCUUCGAGGAUAUGUCAUGGAAUCCACAAUAGAAGGCGGAGAACCAA [Eternabot solution 39] (Eterna round: R96, puzzle: Same State NG 3) | 403 | 526 | 462 |  |  | 
25 | CUGAGCAAUCAAGGAUAUCACGUCGUUUAGACGUGAGAAGGUGAUCAUAACAUGAGGAUCACCCAUGUAUUACAUGAAGCUCAG [SSNG1/1-A3] (Eterna round: R96, puzzle: Same State NG 1) | 767 | 363 | 919 |  |  | 
26 | CUUUCUCUUGCAGGAUAUCCUAGUCUUCGGUUAGGAGAAGGGCAAGGAAACUUGCUAAGCAAGUCUGUAACAGAGAUCCUUCCU [pwkr ssNG1 F9.2] (Eterna round: R96, puzzle: Same State NG 1) | 124 | 78.2 | 164 |  |  | 
27 | AUAAAACAUGAGGAUCACCCAUGUCAACAAAGUCGAGGAUAUGGGCAAAGAAAAUAAGAACCAGAAGGCGAAUAAU [salish99_ss1_r3_056] (puzzle: Same State 1) |  |  |  | 36.2 | 319 | 489
28 | GGAGCCGGCACUGAGGAUAUUCAUAUUUAAACAUGAGGAUCACCCAUGUAGGCCAGAAGGCCUUGGGAGAAGGCAGGUCGGCUCU [salish99_ss2_r3_077] (puzzle: Same State 2) |  |  |  | 20.8 | 247 | 434
29 | UCUUGGUUUUUGCUCGUUUUUUGUGUUGAACAUGAGGAUCACCCAUGUAUUGUACGGUCCGAUUUAGUGGUAGUCCG [JMF 72] (puzzle: Sensor for hsa-mir-208a) |  |  |  | 34.7 | 23.5 | 36
30 | AGCUUCAAACUUUGCUCGUCGCGCCAGCGACAUGAGGAUCACCCAUGUGGGCGCAACCUCGUUAGCCCGAGGGCUCG [Labire] (puzzle: Sensor for hsa-mir-208a) |  |  |  | 27.1 | 14 | 29
31 | AGGAAGGAGACUGAGGAUAUCGUUGAAAGGACAUGAGGAUCACCCAUGUGUAUAGGAUUGGAGAACGAGAAGGCAGAGGAGUGGA [JR_SS2_Sub045] (puzzle: Same State 2) |  |  |  | 36.4 | 46.6 | 71.2
32 | AAGUAACAUGAGGAUCACCCAUGUGAGGUGAGCGUAGGAUAUCGAGGAGGAAGGGUGGAGCGAGAAGGACGAGAGG [JR_SS1_Sub099] (Eterna round: R96, puzzle: Same State 1) | 544 | 281 | 386 |  |  | 

Source: the supplement of paper PMC9170038
